Measured values as given in patent publication US10253086B2, “CD20 therapies, CD22 therapies, and combination therapies with a CD19 chimeric antigen receptor (CAR)-expressing cell” (Novartis AG, priority 2015, dated 2019).
Numbering of substitutions follows the chain as printed.

How the values were obtained:
cynomolgus CD123 = experiment: Cross-reactivity of anti-CD123 clones with cynomolgus CD123; assay type: binding
Description: Their activity was compared against mouse clones 1172 and 1176, comprising the VH and VL domains in a light-to-heavy orientation with a CD8 hinge domain, CD8 transmembrane domain, and 41BB-costimulatory domain. […] 1172 is not.

CD19 and CD22 = experiment: NFAT assay of bispecific CAR19/CAR22 constructs; assay type: cell-based
Experimental: The bispecific CD19-CD22 and CD22-CD19 constructs described above were tested in an NFAT assay, as described in the Examples below. As controls, an anti-CD19 alone CAR and an anti-CD22 alone CAR were used.

[1] = system: luciferase-expressing mantle cell line (RL luc); experiment: RL luc mantle cell lymphoma xenograft, CART19 with exogenous IL-7; assay type: in vivo, NSG mice
Experimental: Next, the effect of exogenous IL-7 treatment on anti-tumor activity of CART19 cells was assessed in a lymphoma animal model. NSG mice were engrafted with a luciferase-expressing mantle cell line (RL luc) on Day 0 (D0), followed by treatment of CART19 cells on Day 6. The NSG mice were divided into groups, where one group received no CART19 cells, a second group received 0.5×10^6 CART19 cells, a third group received 1×10^6 CART19 cells, and a fourth group received 2×10^6 CART19 cells. Tumor size was monitored by measuring the mean bioluminescence of the engrafted tumors over more than 80 days. […] When comparing the tumor burden of mice that received IL-7 treatment to control, before and after IL-7 treatment, tumor reduction in tumor burden was only seen in the mice that had received IL-7 treatment (FIG. 10C).
T cell dynamics following IL-7 treatment in the lymphoma animal model was also examined. Human CART19 cells were not detectable in the blood prior to IL-7 treatment. […] The extent of T cell expansion observed in mice receiving the IL-7 also correlated with tumor response. The mouse with the highest number of T cells detected in the blood at peak expansion during IL-7 treatment (mouse #3815) had the most robust reduction in tumor burden (see FIG. 10B). Moreover, the time of peak expansion correlated with the T cell dose injected as baseline. The number/level CD3-expressing cells in the blood were also measured before and after IL-7 treatment.

Raji-Luc and Daudi-Luc = experiment: IFN-gamma and IL-2 secretion by CD22 CAR primary T cells; assay type: cell-based, human; conditions: E:T 10 to 1, 20-hr co-culture
Experimental: CD22 CAR constructs were also tested for the ability to promote secretion of IFN-gamma and IL-2. Briefly, transduced primary T cells from healthy donors expressing the different CD22 CARs were co-cultured with the CD22-positive target cells Raji-Luc and Daudi-Luc as well as the negative control K562-Luc. T cells and target cell were cultured in an effector-to-target cell ratio (E:T) of 10 to 1. Supernatants were harvested after 20-hr co-culture. […] Similar results were observed when Nalm6-Luc, Pfeiffer-Luc, and K562-CD22-Luc, and SEM-Luc cells were tested (data not shown). Minimal IFN-gamma secretion was observed when the K562-Luc negative control cell line was tested (bottom panel).

[2] = molecular target: recombinant human CD22-Fc (Homo sapiens, UniProt P20273); experiment: Surface expression of CD22 CAR in primary human T-cells (Protein-L, rhCD22-Fc); assay type: cell-based; conditions: day 10, flow cytometry
Experimental: Primary human T-cells were activated with anti-CD3/antiCD28 stimulatory beads on day 0, followed by lentiviral transduction of specified CAR constructs on day 1. Cells were expanded in vitro until day, 10 at which point they were analyzed by flow cytometry for surface expression of CAR. Two different approaches were utilized to determine surface expression of CAR: Protein-L-biotin followed by streptavidin-PE, and recombinant human CD22-Fc followed by anti-Fc-alexafluor 488. […] CD22 CAR m971 served as a positive control for binding both Protein-L and hrCD22-Fc, and Isotype CAR with no specificity (anti-gH) served as a positive control for Protein-L. T cells expressing no CAR were used as a negative control.

[3] = system: Raji, SEM, K562-hCD22, Daudi, and Nalm6; experiment: Primary T-cell tumor target killing assay; assay type: cell-based, human
Description: Primary T-cells activated and transduced as described above were mixed with target cell lines stably expressing luciferase at the ratios indicated (FIG. 20A-20F). […] Untransduced T-cells (UTD) lacked the ability to kill target cell lines.

CD22 = experiment: NFAT assay of CD22 CAR in JNL cells on antigen-coated plates; assay type: cell-based, human
Experimental: Several CD22 CAR constructs were functionally validated in an NFAT assay. Briefly the experiments were performed as follows. A lentiviral vector (pELPS) carrying a nucleic acid, encoding a CD22 CAR with a CD22-binding scFv domain was introduced by electroporation into a Jurkat T cell line modified to express luciferase under the control of an NFAT response element (JNL). The cells were cultured and allowed to express the CAR construct. The electroporated cells were applied to a plate coated with the target antigen (CD22). Detection of luciferase signal in the coated plate was indicative of binding activity of the CD22 CAR to its antigen, leading to activation of the T cells and expression of luciferase.
The results also indicate that the different scFvs compete with m971 to different extents.
FIG. 72 is a graph showing the activation (in RLU) of several CD22 CAR-expressing JNL cells including CD22-57, CD22-58, CD22-59, CD22-60, CD22-61, CD22-62, and CD22-63, the scFv sequences of which are provided herein. Three different target proteins (CD22-FL-Fc, CD22-D567-Fc, and CD22-D67) were used to coat the tissue culture plates; a negative control (Fc) was also included. A mesothelin binding CAR (Meso-G07) was used as a negative control. CD22-12 and CD22-53 were used as positive controls. […] Domain mapping was performed on CD22 binding domains. Three different forms of antigens were used: CD22 full-length with all 7 external domains, Domain567 (in which domains 1-4 were deleted) and Domain67 (in which domains 1-5 were deleted). While not wishing to be bound by theory, it appears that the binding of various CD22 clones maps to the epitopes illustrated in FIG. 75.
Two scFvs, named CD22-64 and CD22-65, were produced by affinity maturation of hCD22-12. CAR constructs containing these scFvs were tested for activity in an NFAT assay as described above. […] The bars in the figure represent, from left to right, CD22 full length-Fc; CD22 D567-Fc; and an Fc only negative control used for coating of the plates.

B1: NVS 3: human anti-human CD123 clone expressing CAR123-3 (antibody, V domains shown)
VH: QVQLVQSGAEVKKPGASVKVSCKASGYIFTGYYIHWVRQAPGQGLEWMGWINPNSGGTNYAQKFQGRVTMTRDTSISTAYMELSGLRSDDPAVYYCARDMNILATVPFDIWGQGTLVTVSS
VL: DIQLTQSPSSLSASVGDRVTITCRASQSISSYLNWYQQKPGKAPKLLIYAASSLQSGVPSRFSGSGSGTDFTLTVNSLQPEDFATYYCQQGDSVPLTFGGGTKVEIK
- cross-reactivity against cynomolgus CD123 (cynomolgus CD123): cross-reactive against cynomolgus CD123

B2: NVS 4: human anti-human CD123 clone expressing CAR123-4 (antibody, V domains shown)
VH: QVQLQQSGAEVKKSGASVKVSCKASGYTFTDYYMHWLRQAPGQGLEWMGWINPNSGDTNYAQKFQGRVTLTRDTSISTVYMELSRLRSDDTAVYYCARDMNILATVPFDIWGQGTMVTVSS
VL: B1 VL with L4M, V75I, N76S
- cross-reactivity against cynomolgus CD123 (cynomolgus CD123): cross-reactive against cynomolgus CD123

B3: CD19-CD22: bispecific scFv tandem fusion CAR, humanized anti-CD19 (104876) and hCD22-2 (protein)
scFv: EIVMTQSPATLSLSPGERATLSCRASQDISKYLNWYQQKPGQAPRLLIYHTSRLHSGIPARFSGSGSGTDYTLTISSLQPEDFAVYFCQQGNTLPYTFGQGTKLEIKGGGGSGGGGSGGGGSQVQLQESGPGLVKPSETLSLTCTVSGVSLPDYGVSWIRQPPGKGLEWIGVIWGSETTYYQSSLKSRVTISKDNSKNQVSLKLSSVTAADTAVYYCAKHYYYGGSYAMDYWGQGTLVTVSSGGGGSGGGGSGGGGSGGGGSEVQLQQSGPGLVKPSQTLSLTCAISGDSVSSNSAAWNWIRQSPSRGLEWLGRTYYRSKWYNDYAVSVKSRITINPDTSKNQFSLQLNSVTPEDTAVYYCARDLGWIAVAGTFDYWGQGTLVTVSSGGGGSGGGGSGGGGSQSALTQPASVSGSPGQSITISCTGTSSDVGGYNYVSWYQQHPGKAPKLMIYDVSKRPSGVSNRFSGSKSGNTASLTISGLQAEDEADYYCSSYTSSSLNHVFGTGTKVTVLT
- activity in NFAT assay (CD19 and CD22): active against their targets

B4: IL-7: exogenous recombinant human IL-7 (protein, UniProt P13232 26-177, looked up)
Interleukin-7: DCDIEGKDGKQYESVLMVSIDQLLDSMKEIGSNCLNNEFNFFKRHICDANKEGMFLFRAARKLRQFLKMNSTGDFDLHLLKVSEGTTILLNCTGQVKGRKPAALGEAQPTKSLEENKSLKEQKKLNDLCFLKRLLQEIKTCWNKILMGTKEH
- reduction in tumor burden ([1]; IL-7 200 ng/mouse i.p. three times weekly from Day 85, mice with suboptimal CART19 response): 1-3 log
- CD3-expressing cells in the blood ([1]; after IL-7 treatment vs control mice): significant increase in CD3+ cells
- numbers of T cells in blood ([1]; upon IL-7 treatment): rapid, but variable increase in the numbers of T cells

B5: CD22-12: human CD22 CAR, parent of CD22-64 and CD22-65 (protein)
scFv: EVQLQQSGPGLVKPSQTLSLTCAISGDSVLSNSDTWNWIRQSPSRGLEWLGRTYHRSTWYDDYASSVRGRVSINVDTSKNQYSLQLNAVTPEDTGVYYCARDRLQDGNSWSDAFDVWGQGTMVTVSSGGGGSGGGGSGGGGSQSALTQPASASGSPGQSVTISCTGTSSDVGGYNYVSWYQQHPGKAPKLMIYDVSNRPSGVSNRFSGSKSGNTASLTISGLQAEDEADYYCSSYTSSSTLYVFGTGTQLTVL
- IFN-gamma secretion (Raji-Luc and Daudi-Luc): induced IFN-gamma secretion
- surface expression of CAR [2]: positive surface expression
- activity in cell killing and cytokine secretion assays (Example 9) [3]: activity comparable to m971
- target cell killing ([3]; CD22 expressing luciferase target cell lines): dose-dependent target cell killing
- activity (see Example 25) (CD22): found to have activity
- antigen binding / activation (RLU) vs m971 (CD22; with and without m971 scFv competitor): bind the antigen approximately as well as the m971 positive control

B6: CD22-CD19: bispecific scFv tandem fusion CAR, hCD22-2 and humanized anti-CD19 (104876) (protein)
scFv: EVQLQQSGPGLVKPSQTLSLTCAISGDSVSSNSAAWNWIRQSPSRGLEWLGRTYYRSKWYNDYAVSVKSRITINPDTSKNQFSLQLNSVTPEDTAVYYCARDLGWIAVAGTFDYWGQGTLVTVSSGGGGSGGGGSGGGGSQSALTQPASVSGSPGQSITISCTGTSSDVGGYNYVSWYQQHPGKAPKLMIYDVSKRPSGVSNRFSGSKSGNTASLTISGLQAEDEADYYCSSYTSSSLNHVFGTGTKVTVLTGGGGSGGGGSGGGGSGGGGSEIVMTQSPATLSLSPGERATLSCRASQDISKYLNWYQQKPGQAPRLLIYHTSRLHSGIPARFSGSGSGTDYTLTISSLQPEDFAVYFCQQGNTLPYTFGQGTKLEIKGGGGSGGGGSGGGGSQVQLQESGPGLVKPSETLSLTCTVSGVSLPDYGVSWIRQPPGKGLEWIGVIWGSETTYYQSSLKSRVTISKDNSKNQVSLKLSSVTAADTAVYYCAKHYYYGGSYAMDYWGQGTLVTVSS
- activity in NFAT assay (CD19 and CD22): active against their targets
